# Laboratory results reported in paper PMC4593522, “Development of a Radiolabeled Peptide-Based Probe Targeting MT1-MMP for Breast Cancer Detection” (PLoS ONE, 2015).
# Read-outs that look alike come from different tables or passages of the source. Square brackets hold non-standard residues; d marks the D form. Peptide text beside a SMILES is read from it. * marks the point of attachment. HYNIC = NNc1ccc(C(=O)*)cn1; AEEA = NCCOCCOCC(=O)O
# How the values were obtained:
# [1] = In vivo biodistribution study (ex vivo organ counting); parameters: species or system mice; conditions: female, mouse, iv, total radioactivity, mean ± SD, n = 3; for tissue to tissue ratio at 0.5 h / tissue to tissue ratio at 1 h / tissue to tissue ratio at 2 h / tissue to tissue ratio at 4 h: athymic nude; for tissue to tissue ratio at 0.5 h: 0.5h after i.v.; for tissue to tissue ratio at 1 h: 1h after i.v.; for tissue to tissue ratio at 2 h: 2h after i.v.; for tissue to tissue ratio at 4 h: 4h after i.v.
# Protocol: (§1) All animal experiments were approved by Jilin University Health Science Center Animal Care and Use Committee. Human breast carcinoma cell line MDA-MB-231 with high MT1-MMP expression and human lung adenocarcinomaepithelial cell line A549 with low MT1-MMP expression were cultured in DMEM medium containing 10% (v/v) fetal bovine serum (Invitrogen) supplemented with penicillin (100 μg/mL) and streptomycin (100 μg/mL) at 37°C with 5% CO2. MDA-MB-231 and A549 tumor models were established by subcutaneous injection of 5×10^6 cells into the upper right front flank of female athymic nude mice (Department of Experimental Animal, Peking University Health Science Center). Tumor growth was monitored by caliper measurements three times a week after the tumors are palpable. The mice were used for SPET/CT imaging when the tumor volume reached about 200 mm3 (about 14 days after tumor inoculations). The tumor volume was determined as the formula: V = a × (b^2)/2, where a and b are the length and width of each tumor in mm respectively. During the injection and image acquisition process, the mice were anesthetized with 2.5% isoflurane in oxygen delivered at a flow rate of 1.5 L/min.
# Animals were divided into 4 groups (n = 3) for 4 time points with approximately equal distribution of tumor sizes on the day before the study. At 0.5, 1, 2, and 4 h after intravenous administration of [^99mTc]-(HYNIC-AF7P)(tricine)(TPPTS), MDA-MB-231 tumor bearing mice were euthanized. […] The organ uptake was calculated as a percentage of the injected dose per gram of wet tissue (%ID/g).
# [2] = system: A549 tumor (little MT1-MMP); test: SPECT imaging of A549 tumor-bearing mice; format: in vivo; conditions: i.v., A549 tumor bearing model, mean ± SD
# Protocol: as §1
# The imaging study was performed using the female BALB/c nude mice bearing the MDA-MB-231 tumors and A549 tumors. Each tumor-bearing mouse was administered intravenously with [^99mTc]-(HYNIC-AF7P)(tricine)(TPPTS) (22.2 MBq/mice) in 0.1 mL saline. For blocking test, 200 μg free AF7P was intravenously injected into MDA-MB-231 tumor bearing mice 30 min before [^99mTc]-(HYNIC-AF7P)(tricine)(TPPTS) was injected. Animals were placed prone on a two-head γ-camera (SIEMENS, E. CAM) equipped with a parallel-hole, low-energy, and high-resolution collimator. Posterior images were acquired at 0.5, 2 and 4 hours post injection (p.i.). The acquisition count limits were set at 700k. After completion of imaging, animals were sacrificed by cervical dislocation.
# [3] = tumor and intestine, read-out: Tumor/Intestine ratio
# [4] = tumor and pancreas, read-out: Tumor/Pancreas ratio
# [5] = tumor/blood, read-out: Tumor/Blood ratio
# [6] = tumor/bone, read-out: Tumor/Bone ratio
# [7] = tumor/heart, read-out: Tumor/Heart ratio
# [8] = tumor/kidney, read-out: Tumor/Kidney ratio
# [9] = tumor/liver, read-out: Tumor/Liver ratio
# [10] = tumor/lung, read-out: Tumor/Lung ratio
# [11] = tumor/muscle, read-out: Tumor/Muscle ratio
# [12] = tumor/spleen, read-out: Tumor/Spleen ratio
smiles,measurement,setting,value
"CC(C)C[C@H](NC(=O)[C@H](Cc1ccccc1)NC(=O)[C@@H](NC(=O)[C@H](CCCCN)NC(=O)[C@@H](NC(=O)[C@H](CC(N)=O)NC(=O)[C@H](Cc1c[nH]cn1)NC(=O)[C@H](CC(C)C)NC(=O)[C@H](Cc1c[nH]cn1)NC(=O)[C@H](CCCCN)NC(=O)[C@H](Cc1c[nH]c2ccccc12)NC(=O)[C@H](Cc1c[nH]cn1)NC(=O)c1ccc(NN)nc1)[C@@H](C)O)[C@@H](C)O)C(=O)NCCOCCOCC(=O)O [[^99mTc]-(HYNIC-AF7P)(tricine)(TPPTS), metal not drawn] ({HYNIC}-HWKHLHNTKTFL[AEEA]-OH)",tissue to tissue ratio at 0.5 h,[1]; [3],1.76 ± 0.1
same,tissue to tissue ratio at 1 h,[1]; [3],1.61 ± 0.17
same,tissue to tissue ratio at 2 h,[1]; [3],1.44 ± 0.13
same,tissue to tissue ratio at 4 h,[1]; [3],0.93 ± 0.12
same,tissue to tissue ratio at 4 h,"[1]; tumor and liver, read-out: Tumor/Liver ratio",0.41 ± 0.04
same,tissue to tissue ratio at 0.5 h,[1]; [4],4.4 ± 0.43
same,tissue to tissue ratio at 1 h,[1]; [4],4.98 ± 0.16
same,tissue to tissue ratio at 2 h,[1]; [4],6.28 ± 0.7
same,tissue to tissue ratio at 4 h,[1]; [4],5.67 ± 0.82
same,tissue to tissue ratio at 0.5 h,[1]; [5],9.27 ± 0.28
same,tissue to tissue ratio at 1 h,[1]; [5],9.36 ± 0.73
same,tissue to tissue ratio at 2 h,[1]; [5],11.1 ± 0.74
same,tissue to tissue ratio at 4 h,[1]; [5],5.54 ± 0.55
same,tissue to tissue ratio at 0.5 h,[1]; [6],4.21 ± 0.2
same,tissue to tissue ratio at 1 h,[1]; [6],4.5 ± 0.51
same,tissue to tissue ratio at 2 h,[1]; [6],5.01 ± 0.38
same,tissue to tissue ratio at 4 h,[1]; [6],2.6 ± 0.15
same,tissue to tissue ratio at 0.5 h,[1]; [7],1.49 ± 0.23
same,tissue to tissue ratio at 1 h,[1]; [7],1.56 ± 0.26
same,tissue to tissue ratio at 2 h,[1]; [7],2.23 ± 0.2
same,tissue to tissue ratio at 4 h,[1]; [7],1.66 ± 0.21
same,tissue to tissue ratio at 0.5 h,[1]; [8],0.38 ± 0.01
same,tissue to tissue ratio at 1 h,[1]; [8],0.35 ± 0.01
same,tissue to tissue ratio at 2 h,[1]; [8],0.45 ± 0.04
same,tissue to tissue ratio at 4 h,[1]; [8],0.24 ± 0.02
same,tissue to tissue ratio at 0.5 h,[1]; [9],0.65 ± 0.06
same,tissue to tissue ratio at 1 h,[1]; [9],0.67 ± 0.07
same,tissue to tissue ratio at 2 h,[1]; [9],0.75 ± 0.05
same,tissue to tissue ratio at 0.5 h,[1]; [10],1.6 ± 0.18
same,tissue to tissue ratio at 1 h,[1]; [10],1.81 ± 0.34
same,tissue to tissue ratio at 2 h,[1]; [10],2.17 ± 0.14
same,tissue to tissue ratio at 4 h,[1]; [10],1.51 ± 0.3
same,tissue to tissue ratio at 0.5 h,[1]; [11],3.77 ± 0.42
same,tissue to tissue ratio at 1 h,[1]; [11],3.86 ± 0.75
same,tissue to tissue ratio at 2 h,[1]; [11],4.17 ± 0.49
same,tissue to tissue ratio at 4 h,[1]; [11],2.02 ± 0.09
same,tissue to tissue ratio at 0.5 h,[1]; [12],3.75 ± 0.46
same,tissue to tissue ratio at 1 h,[1]; [12],3.66 ± 0.58
same,tissue to tissue ratio at 2 h,[1]; [12],3.94 ± 0.57
same,tissue uptake at 0.5 h,"[1]; tumor, 0.5 h after i.v. administration, MDA-MB-231 xenograft, BALB/c nude mice, read-out: Tumor uptake (biodistribution)",3.37 ± 0.27 %ID/g
same,tissue uptake at 1 h,"[1]; tumor, 1 h after i.v. administration, MDA-MB-231 xenograft, BALB/c nude mice, read-out: Tumor uptake (biodistribution)",2.59 ± 0.21 %ID/g
same,tissue uptake at 2 h,"[1]; tumor, 2 h after i.v. administration, MDA-MB-231 xenograft, BALB/c nude mice, read-out: Tumor uptake (biodistribution)",2.18 ± 0.11 %ID/g
same,tissue uptake at 4 h,"[1]; tumor, 4 h after i.v. administration, MDA-MB-231 xenograft, BALB/c nude mice, read-out: Tumor uptake (biodistribution)",1.05 ± 0.07 %ID/g
same,"tumor uptake (SPECT ROI), A549 tumor",[2]; 0.5 h p.i.,1.35±0.11 %ID/g
same,"tumor uptake (SPECT ROI), A549 tumor",[2]; 4 h p.i.,1.01± 0.00 %ID/g
same,"tumor uptake (SPECT ROI), A549 tumor",[2]; time point not printed (between 0.5 h and 4 h),1.03±0.05 %ID/g
